# Measured values as given in patent publication US20110263454A1, “Methods of Identifying Functional Characteristics of Promoters, Transcription Modifying Proteins and Transcription Modulating Agents” (Salk Institute for Biological Studies, priority 2008, published 2011).
# Experiments:
# mGhrelin promoter = assay: NHR-promoter luciferase screen, mGhrelin promoter; type: cell-based, mouse; conditions: for Luc. act., normalized to lacZ / Normalized Luc. act., normalized to control: Table 8, mGhrelin; for Results of assays of transcription factor (+/- ligand) with mGhrelin: Table 6d, luciferase activity relative to control (control = 1.00)
# Summary of the method: (§1)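 CV-1 cells were co-transfected with 50 ng NHR (homodimer or NHR/RXR heterodimer), 100 ng promoter-luciferase construct and 50 ng LacZ. Luciferase was normalized to LacZ and to a no-NHR/no-ligand control.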
# mAgrp promoter = assay: NHR-promoter luciferase screen, mAgrp promoter; type: cell-based, mouse; conditions: for Results of assays of transcription factor (+/- ligand) with mAgrp: Table 6d, luciferase activity relative to control (control = 1.00); for Luc. act., normalized to lacZ / Normalized Luc. act., normalized to control: mAgrp promoter, HR component with or without ligand; for Normalized Luc. act., normalized to control: relative to control
# Summary of the method: as §1
# mUCP1 promoter = assay: NHR-promoter luciferase screen, mUCP1 promoter; type: cell-based, mouse; conditions: for Luc. act., normalized to lacZ / Normalized Luc. act., normalized to control: mUCP1 promoter reporter, co-transfected HR, with or without its ligand; for Normalized Luc. act., normalized to control: relative to control; for luciferase activity normalized to lacZ activity and to a control, mUCP!: mUCP! promoter-luciferase, CV-1 cells, NHR +/- ligand, control = 1.00
# Summary of the method: as §1
# Bmal1 promoter = assay: NHR-promoter luciferase screen, Bmal1 promoter; type: cell-based, mouse; conditions: for Luc. act., normalized to lacZ / Normalized Luc. act., normalized to control: Bmal1 promoter, HR component without or with ligand; for mBmal1 promoter reporter activity: transcription factor +/- ligand, control = 1.00
# Summary of the method: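 Luciferase activity was measured 48 h after transfection, normalized to LacZ and then to a control lacking NHR or ligand. CV-1 cells carried 100 ng Bmal1 reporter, 50 ng NHR construct and 50 ng LacZ.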
# hIRF7 promoter = assay: NHR-promoter luciferase screen, hIRF7 promoter; type: cell-based, human; conditions: for Normalized Luc. act., normalized to control / Luc. act., normalized to lacZ: IRF7 promoter reporter; for Normalized Luc. act., normalized to control: HR without or with its ligand, relative to control; for Luc. act., normalized to lacZ: hormone receptor (HR) without or with its ligand; for hIRF7 promoter reporter activity: transcription factor +/- ligand, control = 1.00
# Summary of the method: as §1
Molecule,"Luc. act., normalized to lacZ (mGhrelin promoter)","Normalized Luc. act., normalized to control (mGhrelin promoter)",Results of assays of transcription factor (+/- ligand) with mGhrelin (mGhrelin promoter),Results of assays of transcription factor (+/- ligand) with mAgrp (mAgrp promoter),"Luc. act., normalized to lacZ (mAgrp promoter)","Normalized Luc. act., normalized to control (mAgrp promoter)","Luc. act., normalized to lacZ (mUCP1 promoter)","Normalized Luc. act., normalized to control (mUCP1 promoter)","luciferase activity normalized to lacZ activity and to a control, mUCP! (mUCP1 promoter)","Luc. act., normalized to lacZ (Bmal1 promoter)","Normalized Luc. act., normalized to control (Bmal1 promoter)",mBmal1 promoter reporter activity (Bmal1 promoter),"Normalized Luc. act., normalized to control (hIRF7 promoter)","Luc. act., normalized to lacZ (hIRF7 promoter)",hIRF7 promoter reporter activity (hIRF7 promoter)
"GCNF: Germ Cell Nuclear Factor (NR6A1, GCNF1), cDNA driver (protein, UniProt Q15406 1-480, looked up) Nuclear receptor subfamily 6 …: MERDEPPPSGGGGGGGSAGFLEPPAALPPPPRNGFCQDELAELDPGTISVSDDRAEQRTCLICGDRATGLHYGIISCEGCKGFFKRSICNKRVYRCSRDKNCVMSRKQRNRCQYCRLLKCLQMGMNRKAIREDGMPGGRNKSIGPVQISEEEIERIMSGQEFEEEANHWSNHGDSDHSSPGNRASESNQPSPGSTLSSSRSVELNGFMAFREQYMGMSVPPHYQYIPHLFSYSGHSPLLPQQARSLDPQSYSLIHQLLSAEDLEPLGTPMLIEDGYAVTQAELFALLCRLADELLFRQIAWIKKLPFFCELSIKDYTCLLSSTWQELILLSSLTVYSKQIFGELADVTAKYSPSDEELHRFSDEGMEVIERLIYLYHKFHQLKVSNEEYACMKAINFLNQDIRGLTSASQLEQLNKRYWYICQDFTEYKYTHQPNRFPDLMMCLPEIRYIAGKMVNVPLEQLPLLFKVVLHSCKTSVGKE",50.7,1.0,0.97,1.42,56.5,1.4,3.8,0.8,0.85,13.7,0.9,0.88,1.1,28.4,1.08
"DAX-1: DAX1 (NR0B1), cDNA driver (protein, UniProt P51843 1-470, looked up) Nuclear receptor subfamily 0 …: MAGENHQWQGSILYNMLMSAKQTRAAPEAPETRLVDQCWGCSCGDEPGVGREGLLGGRNVALLYRCCFCGKDHPRQGSILYSMLTSAKQTYAAPKAPEATLGPCWGCSCGSDPGVGRAGLPGGRPVALLYRCCFCGEDHPRQGSILYSLLTSSKQTHVAPAAPEARPGGAWWDRSYFAQRPGGKEALPGGRATALLYRCCFCGEDHPQQGSTLYCVPTSTNQAQAAPEERPRAPWWDTSSGALRPVALKSPQVVCEAASAGLLKTLRFVKYLPCFQVLPLDQQLVLVRNCWASLLMLELAQDRLQFETVEVSEPSMLQKILTTRRRETGGNEPLPVPTLQHHLAPPAEARKVPSASQVQAIKCFLSKCWSLNISTKEYAYLKGTVLFNPDVPGLQCVKYIQGLQWGTQQILSEHTRMTHQGPHDRFIELNSTLFLLRFINANVIAELFFRPIIGTVSMDDMMLEMLCTKI",63.3,1.2,1.21,1.07,42.3,1.1,6.2,1.4,1.39,19.6,1.3,1.25,1.1,27.9,1.06
"SHP: Small Heterodimer Partner (NR0B2), cDNA driver (protein, UniProt Q15466 1-257, looked up) Nuclear receptor subfamily 0 …: MSTSQPGACPCQGAASRPAILYALLSSSLKAVPRPRSRCLCRQHRPVQLCAPHRTCREALDVLAKTVAFLRNLPSFWQLPPQDQRRLLQGCWGPLFLLGLAQDAVTFEVAEAPVPSILKKILLEEPSSSGGSGQLPDRPQPSLAAVQWLQCCLESFWSLELSPKEYACLKGTILFNPDVPGLQAASHIGHLQQEAHWVLCEVLEPWCPAAQGRLTRVLLTASTLKSIPTSLLGDLFFRPIIGDVDIAGLLGDMLLLR",56.5,1.1,1.08,1.12,44.6,1.1,4.1,0.9,0.93,14.0,0.9,0.89,1.1,29.1,1.10
